In patent US20100008937A1:

Key:
[1] = target: human HA (high-affinity) LFA-1 on stably transfected K562 cells (human) (UniProt P20701); assay: cell-based or functional assay
[2] = target: human WT LFA-1 on stably transfected K562 cells (human) (UniProt P20701); assay: cell-based or functional assay
Chain of human WT LFA-1 on stably transfected K562 cells (human) (P20701 26-1170, chain 1 of 2): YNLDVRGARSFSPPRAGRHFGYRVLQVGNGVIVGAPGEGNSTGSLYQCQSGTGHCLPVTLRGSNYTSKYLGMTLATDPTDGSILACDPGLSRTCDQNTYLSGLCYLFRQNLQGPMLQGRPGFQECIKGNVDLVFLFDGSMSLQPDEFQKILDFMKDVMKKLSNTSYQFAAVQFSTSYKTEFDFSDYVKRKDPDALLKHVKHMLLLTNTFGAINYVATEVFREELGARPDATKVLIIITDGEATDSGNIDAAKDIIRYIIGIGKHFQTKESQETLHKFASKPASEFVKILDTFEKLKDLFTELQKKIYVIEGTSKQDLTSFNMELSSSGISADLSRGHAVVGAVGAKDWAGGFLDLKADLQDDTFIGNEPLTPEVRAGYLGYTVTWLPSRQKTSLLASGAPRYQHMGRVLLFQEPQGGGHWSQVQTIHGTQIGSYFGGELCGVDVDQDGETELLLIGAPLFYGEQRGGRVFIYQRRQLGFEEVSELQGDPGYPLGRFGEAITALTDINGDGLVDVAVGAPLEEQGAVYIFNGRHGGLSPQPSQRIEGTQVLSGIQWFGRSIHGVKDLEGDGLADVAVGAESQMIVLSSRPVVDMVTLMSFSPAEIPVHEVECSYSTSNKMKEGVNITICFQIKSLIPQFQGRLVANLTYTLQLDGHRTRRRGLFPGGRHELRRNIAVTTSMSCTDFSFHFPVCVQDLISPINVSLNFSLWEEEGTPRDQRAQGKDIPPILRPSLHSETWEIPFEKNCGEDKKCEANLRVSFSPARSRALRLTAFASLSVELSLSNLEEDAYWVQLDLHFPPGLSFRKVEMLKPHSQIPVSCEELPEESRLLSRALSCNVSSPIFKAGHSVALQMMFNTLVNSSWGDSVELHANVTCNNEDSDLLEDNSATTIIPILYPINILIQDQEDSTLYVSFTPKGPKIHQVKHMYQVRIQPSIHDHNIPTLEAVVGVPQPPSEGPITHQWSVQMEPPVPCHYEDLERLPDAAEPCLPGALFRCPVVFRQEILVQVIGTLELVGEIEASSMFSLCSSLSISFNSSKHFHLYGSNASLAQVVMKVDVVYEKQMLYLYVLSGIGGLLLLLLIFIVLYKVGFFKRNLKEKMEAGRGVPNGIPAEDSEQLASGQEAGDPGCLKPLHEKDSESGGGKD
Chain of human WT LFA-1 on stably transfected K562 cells (human) (P05107 23-769, chain 2 of 2, further chain): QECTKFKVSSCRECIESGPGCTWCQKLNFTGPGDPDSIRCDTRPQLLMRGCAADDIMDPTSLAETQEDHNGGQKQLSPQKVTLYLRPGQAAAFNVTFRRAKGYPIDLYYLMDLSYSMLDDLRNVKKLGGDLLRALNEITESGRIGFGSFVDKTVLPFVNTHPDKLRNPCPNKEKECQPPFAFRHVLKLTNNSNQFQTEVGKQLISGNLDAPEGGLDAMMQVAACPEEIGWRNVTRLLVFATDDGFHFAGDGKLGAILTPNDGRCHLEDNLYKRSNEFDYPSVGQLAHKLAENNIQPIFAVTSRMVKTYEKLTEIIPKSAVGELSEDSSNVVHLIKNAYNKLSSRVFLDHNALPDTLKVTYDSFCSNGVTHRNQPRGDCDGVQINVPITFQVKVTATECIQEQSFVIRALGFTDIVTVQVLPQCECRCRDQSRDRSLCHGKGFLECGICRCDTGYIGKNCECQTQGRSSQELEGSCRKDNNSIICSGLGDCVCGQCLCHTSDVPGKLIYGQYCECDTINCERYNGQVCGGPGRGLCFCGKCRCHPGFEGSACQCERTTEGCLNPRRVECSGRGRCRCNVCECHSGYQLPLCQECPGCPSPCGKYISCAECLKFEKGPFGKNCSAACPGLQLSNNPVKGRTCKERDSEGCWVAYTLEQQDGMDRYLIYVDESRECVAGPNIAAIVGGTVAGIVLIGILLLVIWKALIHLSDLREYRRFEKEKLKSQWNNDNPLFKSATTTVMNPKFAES

Chain of human HA (high-affinity) LFA-1 on stably transfected K562 cells (human) (P20701 26-1170 K312C/K319C limits assumed, chain 1 of 2): as the sequence (P20701 26-1170, chain 1 of 2) above, with K287C, K294C counted along it
Chain of human HA (high-affinity) LFA-1 on stably transfected K562 cells (human) (P05107 23-769 limits assumed, chain 2 of 2, further chain): as the sequence (P05107 23-769, chain 2 of 2, further chain) above

Substance	Cy3+ K562 cells/Total K562 cells, % (in vivo Cy3-siRNA delivery) [1] [%]	Cy3+ K562 cells/Total K562 cells, % (in vivo Cy3-siRNA delivery) [2] [%]
AL-57-protamine fusion protein (scFv AL-57 fused to human protamine residues 8-29, His6 tag) (from UniProt P04553 8-29)	88.1	23.3
TS1/22-protamine fusion protein (scFv TS1/22 fused to human protamine residues 8-29, His6 tag) (from UniProt P04553 8-29)	87.4	88.5
